The source of these data is patent publication US6956104B2, “Protein Rim2” (JCR Pharmaceuticals Co., Ltd., priority 1999, dated 2005).

The experiment relates to PC12 cells. The experiment is described as follows: GH secretion from transfected PC12 cells. It is filed as cell-based. As to conditions: for 8-Br-cAMP-induced, Ca2+-dependent GH secretion: 8-Br-cAMP 1 mM, GH released relative to total cellular GH, n=9; for forskolin-induced GH secretion relative to wild-type cAMP-GEFII: high K+, 15-min incubation, increment above basal, wild-type = 100%. On the procedure: GH secretion from transfected PC12 cells was performed as described in K. Korake et al., J. Biol. Chem., 272:29407(1997). Expression plasmid vectors (pSR α) for wild-type cAMP-GEFII, mutant cAMP-GEFII (T810A), and the double mutant cAMP-GEFII (G114E, G422D) were prepared. As a control, β-galactosidase (β-gal) was used. […] were transfected with GH expression vector (pXGH5: Nichols Institute) plus each vector described above, using LipofectAMINE.
PC12 cell were incubated with a low […] (4.7 mM) or high K^+ (60 mM) solution, in the presence or absence of forskolin (50 μM) or 8-bromoadenosine 3′,5′ cyclic monophosphate (8-Br-cAMP)(1 mM). Forskolin or 8-Br-cAMP was added 10 min before the incubation with a low or high K^+ solution. In some experiments, the PKA inhibitor H-89 (10 μM) was added 10 min before forskolin stimulation.

With `Nc1ncnc2c1nc(Br)n2[C@@H]1O[C@@H]2COP(=O)(O)O[C@H]2[C@H]1O` [8-Br-cAMP, 8-bromoadenosine 3′,5′ cyclic monophosphate, reference compound], the “8-Br-cAMP-induced, Ca2+-dependent GH secretion” value (cAMP-GEFII-transfectant) was found to be 34.9±1.3% and the “8-Br-cAMP-induced, Ca2+-dependent GH secretion” value (control (β-galactosidase-transfectant)) is reported as 25.1±1.8%. Consider `O=S(=O)(NCCNC/C=C/c1ccc(Br)cc1)c1cccc2cnccc12` [H-89, reference compound], for which the “effect on high K+-induced GH secretion” value (H-89 10 μM, cAMP-GEFII-transfected and β-galactosidase-transfected PC12 cells) was “reduced”.

B1: cAMP-GEFII: cAMP sensor protein, GDP/GTP exchange factor II; wild type transfected into PC12 cells (protein)
chain: MVAAHAAHSQSSAEWIACLDKRPLERSSEDVDIIFTRLKGVKAFEKFHPNLLRQICLCGYYENLEKGITLFRQGDIGTNWYAVLAGSLDVKVSETSSHQDAVTICTLGIGTAFGESILDNTPRHATIVTRESSELLRIEQEDFKALWEKYRQYMAGLLAPPYGVMETGSNNDRIPDKENTPLIEPHVPLRPAHTITKVPSEKILRAGKILRIAILSRAPHMIRDRKYHLKTYRQCCVGTELVDWMIQQTSCVHSRTQAVGMWQVLLEDGVLNHVDQERHFQDKYLFYRFLDDEREDAPLPTEEEKKECDEELQDTMLLLSQMGPDAHMRMILRKPPGQRTVDDLEIIYDELLHIKALSHLSTTVKRELAGVLIFESHAKGGTVLFNQGEEGTSWYIILKGSVNVVIYGKGVVCTLHEGDDFGKLALVNDAPRAASIVLREDNCHFLRVDKEDFNRILRDVEANTVRLKEHDQDVLVLEKVPAGNRAANQGNSQPQQKYTVMSGTPEKILEHFLETIRLEPSLNEATDSVLNDFVMMHCVFMPNTQLCPALVAHYHAQPSQGTEQERMDYALNNKRRVIRLVLQWAAMYGDLLQEDDVAMAFLEEFYVSVSDDARMMAAFKEQLPELEKIVKQISEDAKAPQKKHKVLLQQFNTGDERAQKRQPIRGSDEVLFKVYCIDHTYTTIRVPVAASVKEVISAVADKLGSGEGLIIVKMNSGGEKVVLKSNDVSVFTTLTINGRLFACPREQFDSLTPLPEQEGPTTGTVGTFELMSSKDLAYQMTTYDWELFNCVHELELIYHTFGRHNFKKTTANLDLFLRRFNEIQFWVVTEVCLCSQLSKRVQLLKKFIKIAAHCKEYKNLNSFFAIVMGLSNVAVSRLALTWEKLPSKFKKFYAEFESLMDPSRNHRAYRLTAAKLEPPLIPFMPLLIKDMTFTHEGNKTFIDNLVNFEKMRMIANTARTVRYYRSQPFNPDAAQANKNHQDVRSYVRQLNVIDNQRTLSQMSHRLEPRRP
modifications: left off: large carriers
notes: cAMP sensor protein, GDP/GTP exchange factor II; wild type transfected into PC12 cells
For the molecule B1, the “forskolin-induced, Ca2+-dependent GH secretion with PKA inhibitor H-89, versus control cells” value (H-89 10 μM, forskolin 50 μM) is reported as “significantly higher”. For the same molecule, the “effect on Ca2+-dependent (60 mM K+) secretion of cotransfected GH” value (compared to the control transfectant) is listed as “did not alter”. Further, the “effect on forskolin-induced, Ca2+-dependent GH secretion” value (forskolin 50 μM) is listed as “significantly enhanced”.

B2: cAMP-GEFII (G114E, G422D): double mutant cAMP-GEFII in which both cAMP binding sites are disrupted (protein, UniProt Q9EQZ6 1-1011, looked up, variant G114E G422D)
Rap guanine nucleotide …: MVAAHAAHSQSSAEWIACLDKRPLERSSEDVDIIFTRLKGVKAFEKFHPNLLRQICLCGYYENLEKGITLFRQGDIGTNWYAVLAGSLDVKVSETSSHQDAVTICTLGIGTAFEESILDNTPRHATIVTRESSELLRIEQEDFKALWEKYRQYMAGLLAPPYGVMETGSNNDRIPDKENTPLIEPHVPLRPAHTITKVPSEKILRAGKILRIAILSRAPHMIRDRKYHLKTYRQCCVGTELVDWMIQQTSCVHSRTQAVGMWQVLLEDGVLNHVDQERHFQDKYLFYRFLDDEREDAPLPTEEEKKECDEELQDTMLLLSQMGPDAHMRMILRKPPGQRTVDDLEIIYDELLHIKALSHLSTTVKRELAGVLIFESHAKGGTVLFNQGEEGTSWYIILKGSVNVVIYGKGVVCTLHEGDDFDKLALVNDAPRAASIVLREDNCHFLRVDKEDFNRILRDVEANTVRLKEHDQDVLVLEKVPAGNRAANQGNSQPQQKYTVMSGTPEKILEHFLETIRLEPSLNEATDSVLNDFVMMHCVFMPNTQLCPALVAHYHAQPSQGTEQERMDYALNNKRRVIRLVLQWAAMYGDLLQEDDVAMAFLEEFYVSVSDDARMMAAFKEQLPELEKIVKQISEDAKAPQKKHKVLLQQFNTGDERAQKRQPIRGSDEVLFKVYCIDHTYTTIRVPVAASVKEVISAVADKLGSGEGLIIVKMNSGGEKVVLKSNDVSVFTTLTINGRLFACPREQFDSLTPLPEQEGPTTGTVGTFELMSSKDLAYQMTTYDWELFNCVHELELIYHTFGRHNFKKTTANLDLFLRRFNEIQFWVVTEVCLCSQLSKRVQLLKKFIKIAAHCKEYKNLNSFFAIVMGLSNVAVSRLALTWEKLPSKFKKFYAEFESLMDPSRNHRAYRLTAAKLEPPLIPFMPLLIKDMTFTHEGNKTFIDNLVNFEKMRMIANTARTVRYYRSQPFNPDAAQANKNHQDVRSYVRQLNVIDNQRTLSQMSHRLEPRRP
On to B2, for which the “forskolin-induced GH secretion relative to wild-type cAMP-GEFII” value (forskolin 50 μM) is ~40%.

B3: cAMP-GEFII (T810A): mutant cAMP-GEFII in which a potential PKA phosphorylation site is disrupted (protein, UniProt Q9EQZ6 1-1011, looked up, variant T810A)
Rap guanine nucleotide …: MVAAHAAHSQSSAEWIACLDKRPLERSSEDVDIIFTRLKGVKAFEKFHPNLLRQICLCGYYENLEKGITLFRQGDIGTNWYAVLAGSLDVKVSETSSHQDAVTICTLGIGTAFGESILDNTPRHATIVTRESSELLRIEQEDFKALWEKYRQYMAGLLAPPYGVMETGSNNDRIPDKENTPLIEPHVPLRPAHTITKVPSEKILRAGKILRIAILSRAPHMIRDRKYHLKTYRQCCVGTELVDWMIQQTSCVHSRTQAVGMWQVLLEDGVLNHVDQERHFQDKYLFYRFLDDEREDAPLPTEEEKKECDEELQDTMLLLSQMGPDAHMRMILRKPPGQRTVDDLEIIYDELLHIKALSHLSTTVKRELAGVLIFESHAKGGTVLFNQGEEGTSWYIILKGSVNVVIYGKGVVCTLHEGDDFGKLALVNDAPRAASIVLREDNCHFLRVDKEDFNRILRDVEANTVRLKEHDQDVLVLEKVPAGNRAANQGNSQPQQKYTVMSGTPEKILEHFLETIRLEPSLNEATDSVLNDFVMMHCVFMPNTQLCPALVAHYHAQPSQGTEQERMDYALNNKRRVIRLVLQWAAMYGDLLQEDDVAMAFLEEFYVSVSDDARMMAAFKEQLPELEKIVKQISEDAKAPQKKHKVLLQQFNTGDERAQKRQPIRGSDEVLFKVYCIDHTYTTIRVPVAASVKEVISAVADKLGSGEGLIIVKMNSGGEKVVLKSNDVSVFTTLTINGRLFACPREQFDSLTPLPEQEGPTTGTVGTFELMSSKDLAYQMTTYDWELFNCVHELELIYHTFGRHNFKKTAANLDLFLRRFNEIQFWVVTEVCLCSQLSKRVQLLKKFIKIAAHCKEYKNLNSFFAIVMGLSNVAVSRLALTWEKLPSKFKKFYAEFESLMDPSRNHRAYRLTAAKLEPPLIPFMPLLIKDMTFTHEGNKTFIDNLVNFEKMRMIANTARTVRYYRSQPFNPDAAQANKNHQDVRSYVRQLNVIDNQRTLSQMSHRLEPRRP
With B3, the “forskolin-induced GH secretion relative to wild-type cAMP-GEFII” value (forskolin 50 μM) is on record as “not affected”.
